From article PMC3407131, “Annexin A2 Is a Natural Extrahepatic Inhibitor of the PCSK9-Induced LDL Receptor Degradation” (PLoS ONE, 2012)

B1: 73 aa peptide corresponding to the AnxA2 R1 domain (residues 25–97) (peptide, UniProt P07355 25-97, looked up)
peptide: GSVKAYTNFDAERDALNIETAIKTKGVDEVTIVNILTNRSNAQRQDIAFAYQRRTKKELASALKSALSGHLET
modifications: N-terminus acetylated; C-terminal amide
notes: annexin A2 (AnxA2), residues 25–97 of the R1 domain; also called 73-mer AnxA2 peptide (aa 25–97); long peptide form; source: synthetic peptide (solid phase synthesis, RP-HPLC purified)
B2: intermediate 49 aa AnxA2 peptide (residues 49–97) (peptide, UniProt P07355 49-97, looked up)
peptide: Ac-KGVDEVTIVNILTNRSNAQRQDIAFAYQRRTKKELASALKSALSGHLET-NH2
notes: annexin A2 (AnxA2), residues 49–97 of the R1 domain; also called intermediate length peptide (49–97); aa 49–97 peptide; source: synthetic peptide (solid phase synthesis, RP-HPLC purified)

Molecular target: T1, biotin-labeled human PCSK9 protein (residues 30–692) (human, UniProt Q8NBP7 30-692, biotin-labeled (site not stated))
T1 construct: PCSK9, human, residues 30–692; written as one chain; Held on streptavidin donor beads by the biotin; also called biotinylated PCSK9; full length PCSK9; source: baculovirus expression, purified recombinant
T1 sequence (Q8NBP7 30-692): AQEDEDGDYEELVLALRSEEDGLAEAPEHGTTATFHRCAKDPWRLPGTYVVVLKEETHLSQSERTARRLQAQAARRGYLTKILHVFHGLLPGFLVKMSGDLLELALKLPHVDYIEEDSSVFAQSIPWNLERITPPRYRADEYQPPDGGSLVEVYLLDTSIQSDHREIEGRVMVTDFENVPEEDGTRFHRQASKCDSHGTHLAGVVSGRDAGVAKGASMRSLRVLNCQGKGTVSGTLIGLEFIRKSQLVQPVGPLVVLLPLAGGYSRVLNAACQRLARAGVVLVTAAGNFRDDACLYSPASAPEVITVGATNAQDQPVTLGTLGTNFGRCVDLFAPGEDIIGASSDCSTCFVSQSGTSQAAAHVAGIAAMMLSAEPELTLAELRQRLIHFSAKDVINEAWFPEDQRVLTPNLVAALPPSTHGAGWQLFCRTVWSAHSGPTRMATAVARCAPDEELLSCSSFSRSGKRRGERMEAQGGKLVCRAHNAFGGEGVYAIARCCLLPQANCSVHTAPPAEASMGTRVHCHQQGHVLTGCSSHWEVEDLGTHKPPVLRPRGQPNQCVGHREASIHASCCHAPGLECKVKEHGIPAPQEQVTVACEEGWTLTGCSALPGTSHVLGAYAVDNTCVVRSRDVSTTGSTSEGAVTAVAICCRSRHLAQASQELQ
Test: AlphaScreen or HTRF; competition: biotin-PCSK9 (15 nM) and His-LDLR ectodomain (15 nM) mixed with increasing AnxA2 peptide, 60 min at 20°C in 25 mM Hepes pH 7.4, 100 mM NaCl, 0.5 mM CaCl2, 0.1% BSA; streptavidin donor and nickel chelate acceptor beads, overnight at 20°C
Conditions: both partners purified

| IC50 [nM] | fold lower apparent potency than the peptide 25–97 [fold] | Binder |
| --- | --- | --- |
| ~600 |  | B1 |
|  | ~20 | B2 |
